According to publication PMC11480844 (2024):

B1: H2-Kb / B15 (parent complex)
chain 1: QQQVRQSPQSLTVWEGETAILNCSYENSAFDYFPWYQQFPGEGPALLISILSVSDKKEDGRFTIFFNKREKKLSLHIADSQPGDSATYFCAASAASNNRLTLGKGTQVVVLP
chain 2: DSGVVQSPRHIIKEKGGRSVLTCIPISGHSNVVWYQQTLGKELKFLIQHYEKVERDKGFLPSRFSVQQFDDYHSEMNMSALELEDSAMYFCASSRRADAEQFFGPGTRLTVL
chain 3: not shown
chain 4: IQKTPQIQVYSRHPPENGKPNILNCYVTQFHPPHIEIQMLKNGKKIPKVEMSDMSFSKDWSFYILAHTEFTPTETDTYACRVKHDSMAEPKTVYWDRDM
chain 5: SIINFEKL
B2: H2-Kb / Ed9 (parent complex)
chain 1: AQSVTQPDARVTVSEGASLQLRCKYSYFGTPYLFWYVQYPRQGLQLLLKYYPGDPVVQGVNGFEAEFSKSNSSFHLRKASVHWSDWAVYFCAVSITGGYKVVFGSGTRLLVSP
chain 2: DSGVVQSPRHIIKEKGGRSVLTCIPISGHSNVVWYQQTLGKELKFLIQHYEKVERDKGFLPSRFSVQQFDDYHSEMNMSALELEDSAMYFCASSPRQSDYTFGSGTRLLVI
chain 3: not shown
chain 4: B1 chain 4
chain 5: SIINFEKL
Also: test concentration or dose not given here.

Variants of: B1
Assay: % of reporter cells activated (NFAT-GFP), raw
For chain 5 I3R, the ratio to parent was 0.339. With chain 5 I3G the ratio to parent was 0.362. Variant chain 5 I3E has a ratio to parent of 0.599. In the case of chain 5 I3V, the ratio to parent is reported as 0.798. For chain 5 F5H, the ratio to parent was 0.944. chain 5 F5R was tested, and the ratio to parent was 0.96. chain 5 E6W was tested, and the ratio to parent was 0.0482. chain 5 E6M gave a ratio to parent of 0.324. Variant chain 5 E6T has a ratio to parent of 0.132. For chain 5 E6R, the ratio to parent was 0.221. chain 5 E6K was tested, and the ratio to parent was 0.623. chain 5 E6P gave a ratio to parent of 0.328. For chain 5 E6C, the ratio to parent was 0.47. chain 5 E6Q showed a ratio to parent of 0.41. With chain 5 N4P the ratio to parent was 0.00661. chain 5 N4R gave a ratio to parent of 0.382. For chain 5 N4C, the ratio to parent was 0.0905. With chain 5 K7G the ratio to parent was 0.457. Variant chain 5 K7F has a ratio to parent of 0.0871. With chain 5 K7W the ratio to parent was 0.836. In the case of chain 5 K7Q, the ratio to parent is reported as 0.212. With chain 5 K7L the ratio to parent was 0.159. With chain 5 S1E the ratio to parent was 0.759. Variant chain 5 S1A has a ratio to parent of 0.847. For chain 5 L8Y, the ratio to parent was 0.793. In the case of chain 5 L8W, the ratio to parent is reported as 0.805. chain 5 L8T was tested, and the ratio to parent was 0.977. chain 5 I2A gave a ratio to parent of 0.958. With chain 5 I2K the ratio to parent was 0.859. Variant chain 5 I2P has a ratio to parent of 0.772.

Variants of: B2
Assay: % of reporter cells activated (NFAT-GFP), raw
Variant chain 5 L8E has a ratio to parent of 0.892. chain 5 L8M gave a ratio to parent of 1.14. chain 5 L8P gave a ratio to parent of 0.817. Variant chain 5 L8H has a ratio to parent of 1.16. chain 5 L8A gave a ratio to parent of 1.08. Variant chain 5 L8R has a ratio to parent of 1.13. Variant chain 5 L8C has a ratio to parent of 0.957. For chain 5 L8Q, the ratio to parent was 1.18. With chain 5 L8V the ratio to parent was 0.958. In the case of chain 5 L8D, the ratio to parent is reported as 0.803. Variant chain 5 F5P has a ratio to parent of 0.552. With chain 5 F5A the ratio to parent was 1.33. chain 5 F5G gave a ratio to parent of 1.05. chain 5 F5R was tested, and the ratio to parent was 1.31. chain 5 F5T gave a ratio to parent of 1.38. chain 5 F5I showed a ratio to parent of 1.14. Variant chain 5 F5V has a ratio to parent of 1.27. chain 5 F5Q was tested, and the ratio to parent was 1.33. chain 5 F5H was tested, and the ratio to parent was 1.29. In the case of chain 5 F5C, the ratio to parent is reported as 1.26. In the case of chain 5 F5L, the ratio to parent is reported as 1.36. For chain 5 F5K, the ratio to parent was 1.09. chain 5 F5M was tested, and the ratio to parent was 1.32. For chain 5 F5W, the ratio to parent was 1.22. In the case of chain 5 F5D, the ratio to parent is reported as 0.945. chain 5 I2S showed a ratio to parent of 1.18. For chain 5 I2E, the ratio to parent was 1.11. chain 5 I2M showed a ratio to parent of 1.18. chain 5 I2H showed a ratio to parent of 0.854. Variant chain 5 I2K has a ratio to parent of 1. With chain 5 I2Y the ratio to parent was 0.858. In the case of chain 5 I2C, the ratio to parent is reported as 1.22. Variant chain 5 I2R has a ratio to parent of 1.12. For chain 5 I2D, the ratio to parent was 1.21. For chain 5 I2V, the ratio to parent was 1.32. chain 5 I2G gave a ratio to parent of 1.06. For chain 5 I2A, the ratio to parent was 1.21. chain 5 I2N showed a ratio to parent of 0.905. With chain 5 I2P the ratio to parent was 1. For chain 5 I2T, the ratio to parent was 1.22. With chain 5 I2W the ratio to parent was 0.799. Work on chain 5 I2L yielded a ratio to parent of 1.31. chain 5 N4M showed a ratio to parent of 0.00718. chain 5 N4L was tested, and the ratio to parent was 0.608. chain 5 N4T gave a ratio to parent of 0.127. With chain 5 N4D the ratio to parent was 0.832. Work on chain 5 N4G yielded a ratio to parent of 0.0077. For chain 5 N4W, the ratio to parent was 0.0561. In the case of chain 5 N4Y, the ratio to parent is reported as 0.0572. Variant chain 5 N4R has a ratio to parent of 0.572. With chain 5 N4C the ratio to parent was 0.0443. Variant chain 5 N4H has a ratio to parent of 0.294. In the case of chain 5 N4K, the ratio to parent is reported as 0.364. In the case of chain 5 N4I, the ratio to parent is reported as 0.41. chain 5 K7A gave a ratio to parent of 0.47. For chain 5 K7Y, the ratio to parent was 0.668. chain 5 K7L was tested, and the ratio to parent was 0.719. chain 5 K7N showed a ratio to parent of 0.332. Variant chain 5 K7F has a ratio to parent of 0.296. Variant chain 5 K7Q has a ratio to parent of 0.798. Variant chain 5 K7W has a ratio to parent of 0.781. chain 5 K7H showed a ratio to parent of 0.723. chain 5 K7I gave a ratio to parent of 0.919. Work on chain 5 K7C yielded a ratio to parent of 0.432. chain 5 K7D showed a ratio to parent of 0.294. With chain 5 K7V the ratio to parent was 0.845. Variant chain 5 K7P has a ratio to parent of 0.525. Work on chain 5 K7S yielded a ratio to parent of 0.969. For chain 5 K7R, the ratio to parent was 0.982. chain 5 K7G was tested, and the ratio to parent was 0.473. chain 5 E6N gave a ratio to parent of 0.203. In the case of chain 5 E6C, the ratio to parent is reported as 0.0497. Work on chain 5 E6H yielded a ratio to parent of 0.73. For chain 5 E6I, the ratio to parent was 0.449. With chain 5 E6D the ratio to parent was 0.85. With chain 5 E6K the ratio to parent was 0.795. chain 5 E6W was tested, and the ratio to parent was 0.0935. chain 5 E6P gave a ratio to parent of 0.155. With chain 5 E6T the ratio to parent was 0.702. In the case of chain 5 E6A, the ratio to parent is reported as 0.437. chain 5 E6V showed a ratio to parent of 0.409. chain 5 E6L was tested, and the ratio to parent was 0.0232. Work on chain 5 E6S yielded a ratio to parent of 0.469. For chain 5 E6M, the ratio to parent was 0.725. chain 5 E6R gave a ratio to parent of 0.329. Work on chain 5 E6F yielded a ratio to parent of 0.0676. In the case of chain 5 E6G, the ratio to parent is reported as 0.597. In the case of chain 5 E6Q, the ratio to parent is reported as 0.646. Variant chain 5 I3F has a ratio to parent of 0.0133. chain 5 I3N showed a ratio to parent of 0.336. chain 5 I3V showed a ratio to parent of 1.12. Work on chain 5 I3C yielded a ratio to parent of 0.633. Work on chain 5 I3E yielded a ratio to parent of 0.56. chain 5 I3K gave a ratio to parent of 0.907. For chain 5 I3W, the ratio to parent was 0.753. Variant chain 5 I3L has a ratio to parent of 1.03. Variant chain 5 I3D has a ratio to parent of 0.484. In the case of chain 5 I3Q, the ratio to parent is reported as 0.728. Work on chain 5 I3M yielded a ratio to parent of 0.914. In the case of chain 5 I3P, the ratio to parent is reported as 0.819. For chain 5 I3G, the ratio to parent was 0.446. Variant chain 5 I3S has a ratio to parent of 1.01. In the case of chain 5 I3H, the ratio to parent is reported as 1.17. With chain 5 I3R the ratio to parent was 0.385. chain 5 I3T showed a ratio to parent of 0.43. Work on chain 5 S1K yielded a ratio to parent of 0.424. Variant chain 5 S1R has a ratio to parent of 0.402. With chain 5 S1E the ratio to parent was 0.0209. In the case of chain 5 S1H, the ratio to parent is reported as 0.543. chain 5 S1A showed a ratio to parent of 1.17. chain 5 S1M showed a ratio to parent of 0.0181. In the case of chain 5 S1F, the ratio to parent is reported as 0.245. chain 5 S1Y was tested, and the ratio to parent was 0.802. chain 5 S1G showed a ratio to parent of 0.224. With chain 5 S1Q the ratio to parent was 0.0362. In the case of chain 5 S1W, the ratio to parent is reported as 0.126. Work on chain 5 S1N yielded a ratio to parent of 0.0383. chain 5 S1T gave a ratio to parent of 0.381. chain 5 S1C was tested, and the ratio to parent was 0.147. Variant chain 5 S1L has a ratio to parent of 0.0324.
